Numbering of substitutions follows the chain as printed. Numbers in names are those of the source.

The target of one data set is T1, RBMS1 RRM1 (Homo sapiens, UniProt P29558 58-137).
T1 sequence: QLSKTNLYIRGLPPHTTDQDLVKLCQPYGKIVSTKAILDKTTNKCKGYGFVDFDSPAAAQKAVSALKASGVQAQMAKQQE
As to the kind of experiment: ITC; ITC: 20 mM sodium phosphate pH 7.1, 50 mM NaCl, 303 K, 0.1 mM protein in cell, 1-1.5 mM DNA in syringe; NMR: 20 mM sodium phosphate pH 7.1, 100 mM NaCl, 5% D2O. Particulars: protein: recombinant; tags: 6xHis removed by TEV; single strand. (Isothermal titration calorimetry measures the heat released or taken up as one component is titrated into another.)
In the case of TGGTATT (ssDNA), the binding signal is 10 fold lower affinity than RBMS1 58-224.

For a further data set, the target named is T2, RBMS1 (58-224) (Homo sapiens, UniProt P29558 58-224).
T2 sequence: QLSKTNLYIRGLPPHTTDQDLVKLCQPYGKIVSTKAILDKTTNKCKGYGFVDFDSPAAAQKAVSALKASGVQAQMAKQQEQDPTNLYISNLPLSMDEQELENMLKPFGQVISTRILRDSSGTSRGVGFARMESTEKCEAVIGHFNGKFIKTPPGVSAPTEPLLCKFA
The data set is described as above. Particulars: protein: recombinant; tags: N-term GAMG left after TEV cleavage of 6xHis; single strand.
As usually defined, the Kd is the concentration at which binding is half-saturated. Regarding TGTTATT (ssDNA) [TGTTATT (C2G)], the Kd amounted to 15.2 µM.

Consider TCTTATT (ssDNA) [c-myc consensus TCTTATT], for which the Kd is 3.84 µM.

A further data set has as its target T1, RBMS1 RRM1. The description is as above. Particulars: protein: recombinant; tags: 6xHis removed by TEV; single strand. The source holds these as a separate data set.
With TCTTATT (ssDNA) [c-myc consensus TCTTATT], the Kd worked out at 55.2 µM.

The target in a further data set is T3, RBMS1 RRM2 (Homo sapiens, UniProt P29558 138-224).
T3 sequence: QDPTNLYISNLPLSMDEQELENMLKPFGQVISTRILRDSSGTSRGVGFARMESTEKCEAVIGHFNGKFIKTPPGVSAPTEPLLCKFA
Described as above. Particulars: protein: recombinant; tags: 6xHis removed by TEV; single strand.
Regarding TGGTATT (ssDNA), the binding result is “no binding”.

Turning to TGGTTTT (ssDNA), the binding result is “no binding”.

A further data set has as its target T4, RBMS1 (58-224) (Homo sapiens) (UniProt P29558).
T4 sequence: T2 sequence
Description: ITC. Particulars: ITC: 20 mM sodium phosphate pH 7.1, 50 mM NaCl, 303 K, 0.1 mM protein in cell, 1-1.5 mM DNA in syringe; NMR: 20 mM sodium phosphate pH 7.1, 100 mM NaCl, 5% D2O.
Regarding c-myc 21 bp promoter sequence, the Kd came to 2600 nM.

The target in another data set is T5, RBMS1 linker mutant Q135E/Q138E (Homo sapiens, UniProt P29558 58-224, Q135E).
T5 sequence: T2 sequence with Q78E
Description: ITC; ITC: 20 mM sodium phosphate pH 7.1, 50 mM NaCl, 303 K, 0.1 mM protein in cell, 1-1.5 mM DNA in syringe; NMR: 20 mM sodium phosphate pH 7.1, 100 mM NaCl, 5% D2O. Particulars: protein: recombinant; tags: 6xHis removed by TEV; single strand.
With TCTTATT (ssDNA) [c-myc consensus TCTTATT], the binding signal is 10 fold lower binding than wild type.

The target of the next data set is T6, RBMS1 (58-224) (Homo sapiens, UniProt P29558 62-223).
T6 sequence: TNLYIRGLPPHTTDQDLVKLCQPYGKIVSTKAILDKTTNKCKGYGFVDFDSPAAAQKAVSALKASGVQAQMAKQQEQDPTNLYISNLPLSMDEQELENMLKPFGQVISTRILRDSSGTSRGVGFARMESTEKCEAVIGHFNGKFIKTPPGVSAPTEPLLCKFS
Description: ITC; 20 mM sodium phosphate pH 7.1, 50 mM NaCl, 303 K (30 C); 0.1 mM protein in cell, 1-1.5 mM DNA in syringe. Particulars: protein: recombinant; tags: N-term GAMG left after TEV cleavage of 6xHis.
Regarding TGGAATT (ssDNA), the Kd stood at 21 µM.

With TGGTATT (ssDNA), the Kd was 6.7 µM.

Take TCGGATG (ssDNA): the Kd was found to be 35.5 µM.

For CTTTA (ssDNA), the Kd is 55.5 µM.

With TGTTATT (ssDNA), the Kd stood at 15.2 µM.

Turning to TCGTATT (ssDNA), the Kd is 7.7 µM.

GTAT (ssDNA): the binding result was “no binding”.

On to GTTAT (ssDNA), for which the Kd was found to be 81.3 µM.

In the case of TTAT (ssDNA), the binding result is given as “no binding”.

TCTTATG (ssDNA): the equilibrium dissociation constant (Kd) is 19.3 µM.

As to TCTTATT (ssDNA), the Kd is 3.84 µM.

As to TGGTCAT (ssDNA), the Kd is 17.5 µM.

ATAT (ssDNA): the binding result is “no binding”.

With TGGTTTT (ssDNA), the Kd is 4.04 µM.

For the molecule TATAATT (ssDNA), the Kd turned out to be 37 µM.

Consider TGGTGTT (ssDNA), for which the Kd was found to be 16.1 µM.

Turning to TGGTACT (ssDNA), the Kd was 15.9 µM.

On to TTTTT (ssDNA), for which the Kd came out at 79.4 µM.

Take TGGGATT (ssDNA): the Kd turned out to be 36.4 µM.

Consider GGTAAT (ssDNA), for which the dissociation constant Kd was determined as 14.9 µM.

On to TCATATT (ssDNA), for which the Kd came to 11.9 µM.

As to TGCTATT (ssDNA), the Kd worked out at 8.69 µM.

As for TCCCATT (ssDNA), the Kd worked out at 8.2 µM.

For TGGTAAT (ssDNA), the Kd amounted to 9.6 µM.

TGGTATC (ssDNA): the Kd came out at 6.2 µM.

The next data set addresses T7, RBMS1 (58-224) Y105S (Homo sapiens, UniProt P29558 62-223, Y105S).
T7 sequence: T6 sequence with Y44S
Described as above. Particulars: protein: recombinant; tags: N-term GAMG left after TEV cleavage of 6xHis.
For TGGTATT (ssDNA), the Kd was 151 µM.

In the case of TCTTATT (ssDNA), the binding result is on record as “no binding”.

For TGGTTTT (ssDNA), the Kd is 418 µM.

For the next data set, the target named is T8, RBMS1 (58-224) F185V (Homo sapiens, UniProt P29558 62-223, F185V).
T8 sequence: T6 sequence with F124V
The data set is described as above. Particulars: protein: recombinant; tags: N-term GAMG left after TEV cleavage of 6xHis.
Take TGGTATT (ssDNA): the Kd amounted to 23.2 µM.

With TCTTATT (ssDNA), the Kd amounted to 6.02 µM.

With TGGTTTT (ssDNA), the Kd was 22 µM.

The target of another data set is T9, RBMS1 (58-224) F107L (Homo sapiens, UniProt P29558 62-223, F107L).
T9 sequence: T6 sequence with F46L
Described as above. Particulars: protein: recombinant; tags: N-term GAMG left after TEV cleavage of 6xHis.
Turning to TGGTATT (ssDNA), the dissociation constant Kd worked out at 182 µM.

Consider TCTTATT (ssDNA), for which the Kd came out at 142 µM.

On to TGGTTTT (ssDNA), for which the Kd turned out to be 83.3 µM.

The next data set concerns the target T10, RBMS1 (58-224) Q138E (Homo sapiens, UniProt P29558 62-223, Q138E).
T10 sequence: T6 sequence with Q77E
The description is as above. Particulars: protein: recombinant; tags: N-term GAMG left after TEV cleavage of 6xHis.
Turning to TGGTATT (ssDNA), the Kd is 17.6 µM.

Take TCTTATT (ssDNA): the Kd was found to be 13.9 µM.

With TGGTTTT (ssDNA), the Kd came to 18.1 µM.

(Values after article PMC8191779, “Hinge like domain motion facilitates human RBMS1 protein binding to proto-oncogene c-myc promoter”.)
